The values that follow come from patent publication US20200255508A1 (AbbVie / Abbott, published 2020).

Where a chain is given by its changes, count along the chain named. Like-named read-outs stand apart in the source and are kept apart here.

The target of test [1] is T1, human DLL4 extracellular domain (human, UniProt Q9NR61 27-529). In words: cell-based or functional assay.
For test [2], the target named is T2, mouse DLL4 extracellular domain (mouse, UniProt Q9JI71 27-532). In words: cell-based or functional assay.
T2 sequence (Q9JI71 27-532): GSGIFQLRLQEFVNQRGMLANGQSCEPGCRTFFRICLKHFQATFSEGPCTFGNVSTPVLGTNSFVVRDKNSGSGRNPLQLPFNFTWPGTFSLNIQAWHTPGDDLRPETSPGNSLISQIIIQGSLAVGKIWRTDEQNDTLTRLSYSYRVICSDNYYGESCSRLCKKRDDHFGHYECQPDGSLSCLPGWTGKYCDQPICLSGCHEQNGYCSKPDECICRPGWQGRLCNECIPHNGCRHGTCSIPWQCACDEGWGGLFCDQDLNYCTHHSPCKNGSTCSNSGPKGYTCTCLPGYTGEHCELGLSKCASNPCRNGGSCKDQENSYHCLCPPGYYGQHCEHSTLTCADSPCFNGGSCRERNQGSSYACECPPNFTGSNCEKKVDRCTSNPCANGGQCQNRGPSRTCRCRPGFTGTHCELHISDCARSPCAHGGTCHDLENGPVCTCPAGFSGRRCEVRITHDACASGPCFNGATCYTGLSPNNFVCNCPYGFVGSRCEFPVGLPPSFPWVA
Test [3] addresses T3, human DLL4 on the cell surface (human, UniProt Q9NR61 27-685). In words: cell-based or functional assay.
The target in test [4] is T1, human DLL4 extracellular domain. In words: capture ELISA. For orientation: An ELISA detects its analyte on a solid surface through an enzyme-linked reagent.
Experimental: (§1) ELISA plates were washed 3 times with wash buffer (PBS, 0.05% Tween-20) and then blocked with 200 ml/well blocking buffer (D-PBS, 1% BSA, 1 mM CaCl₂, 0.05% Tween-20) for 1 hour at 25° C. Plates were washed 3 times and incubated with 100 μl/well DLL4 antibodies (0.0001-100 nM, 10-fold serial dilution in blocking buffer) for 1 hour at 25° C., and then washed again 3 times. […] The reaction was stopped after 2 minutes at 25° C. with 100 μl/well 2 N H2SO₄ and the absorbance was read at 450 nm. Data were analyzed using Graphpad Prism software and EC₅₀ values were reported.
Test [5] addresses T2, mouse DLL4 extracellular domain. The test can be described thus: capture ELISA.
Experimental: as §1
For test [6], the target named is T3, human DLL4 on the cell surface. In words: FACS on DLL4 cells.
Experimental: (§2) Stable cell lines overexpressing cell-surface DLL4 were harvested from tissue culture flasks, washed four times and resuspended in phosphate buffered saline (PBS) containing 1% bovine serum albumin and 1 mM CaCl₂ (FACS buffer), 1.5×10³ cells were incubated with antibodies at various concentrations in FACS buffer for 60 minutes on ice. Cells were washed twice and 50 μL of R-phycoerythrin-conjugated anti-rat IgG. […] Following an incubation on ice (4° C., 60 minutes), cells were washed three times and resuspended in FACS buffer. Fluorescence was measured using a Becton Dickinson FACSCalibur-HTS (Becton Dickinson, San Jose. Calif., US). Data were analyzed using Graphpad Prism software and EC₅₀ values were reported as the concentration of antibody to achieve 50% of maximal DLL4 antibodies binding to DLL4 expressing cells.
For test [7], the target named is T4, mouse DLL4 on the cell surface (mouse, UniProt Q9JI71 27-686).
T4 construct: whole, on cells; also called HEK293-mDLL4; mDLL4-293G
T4 sequence (Q9JI71 27-686): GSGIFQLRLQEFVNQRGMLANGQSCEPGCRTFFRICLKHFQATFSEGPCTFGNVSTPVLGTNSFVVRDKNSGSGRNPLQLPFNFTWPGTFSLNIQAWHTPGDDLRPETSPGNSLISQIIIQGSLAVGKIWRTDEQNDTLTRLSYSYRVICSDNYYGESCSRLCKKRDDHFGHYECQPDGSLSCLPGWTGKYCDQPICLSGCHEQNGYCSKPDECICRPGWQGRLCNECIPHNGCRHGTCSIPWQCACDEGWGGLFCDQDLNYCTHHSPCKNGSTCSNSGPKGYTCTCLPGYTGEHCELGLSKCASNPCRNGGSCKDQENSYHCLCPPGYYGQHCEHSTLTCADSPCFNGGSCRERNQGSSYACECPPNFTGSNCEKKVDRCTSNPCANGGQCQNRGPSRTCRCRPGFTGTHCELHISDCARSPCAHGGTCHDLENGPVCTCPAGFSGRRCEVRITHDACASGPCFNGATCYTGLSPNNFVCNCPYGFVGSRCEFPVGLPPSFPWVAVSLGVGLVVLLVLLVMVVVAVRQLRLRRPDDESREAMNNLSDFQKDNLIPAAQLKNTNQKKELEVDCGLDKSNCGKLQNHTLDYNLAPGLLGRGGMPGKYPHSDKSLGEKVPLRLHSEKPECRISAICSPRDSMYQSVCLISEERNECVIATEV
The test can be described thus: FACS on DLL4 cells.
Experimental: as §2

Test [8] deals with T5, rat DLL4 extracellular domain (rat, UniProt D3ZHH1 28-530).
T5 construct: extracellular domain; also called ratDLL4 ECD
T5 sequence (D3ZHH1 28-530): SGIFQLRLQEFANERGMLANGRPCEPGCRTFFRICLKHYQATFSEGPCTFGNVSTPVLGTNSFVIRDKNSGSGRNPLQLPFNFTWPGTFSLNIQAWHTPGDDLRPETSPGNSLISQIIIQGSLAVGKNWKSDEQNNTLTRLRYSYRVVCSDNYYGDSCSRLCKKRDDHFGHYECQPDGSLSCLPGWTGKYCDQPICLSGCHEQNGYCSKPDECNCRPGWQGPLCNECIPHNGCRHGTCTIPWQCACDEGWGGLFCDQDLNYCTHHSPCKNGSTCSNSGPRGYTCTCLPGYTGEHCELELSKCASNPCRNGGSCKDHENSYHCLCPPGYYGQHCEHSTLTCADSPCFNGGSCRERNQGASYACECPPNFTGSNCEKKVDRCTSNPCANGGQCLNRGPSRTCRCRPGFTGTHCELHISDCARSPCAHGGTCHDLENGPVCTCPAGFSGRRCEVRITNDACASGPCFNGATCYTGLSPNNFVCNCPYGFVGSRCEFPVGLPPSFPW
The test can be described thus: Biacore SPR.
Experimental: (§3) Binding of DLL4 antibodies to a purified recombinant DLL4 extracellular domain is determined by surface plasmon resonance-based measurements with a Biacore® instrument (either a Biacore 2000, Biacore 3000, or Biacore T100, GE Healthcare, Piscataway, N.J. US) using running buffer HBS-EPB (10 mM HEPES [pH 7.4], 150 mM NaCl, 3 mM EDTA, 0.1 mg/ml BSA and 0.005% surfactant P20) at 25° C. For example, approximately 9000 RU of goat anti-human Fc specific polyclonal antibody (Thermo Fisher Scientific Inc., Rockford, Ill., US) diluted in 10 mM sodium acetate (pH 4.5) is directly immobilized across a CM5 research grade biosensor chip using a standard amine coupling kit according to manufacturer's instructions and procedures at 25 μg/ml. Unreacted moieties on the biosensor surface are blocked with ethanolamine. For kinetic analysis, rate equations derived from the 1:1 Langmuir binding model are fitted simultaneously to multiple antigen injections (using global fit analysis) with the use of Scrubber 2 (BioLogic Software). […] The equilibrium dissociation constant KD (M) of the reaction between antibodies and the target antigen is then calculated from the kinetic rate constants by the following formula: KD=Koff/Kₒₙ. Binding is recorded as a function of time and kinetic rate constants are calculated. In this assay, on-rates as fast as 10⁶ M⁻¹s⁻¹ and off-rates as slow as 10⁻⁶ s⁻¹ can be measured.

For test [9], the target named is T1, human DLL4 extracellular domain. The test can be described thus: Biacore SPR. (In SPR one partner is held on a chip, and binding of the other changes the refractive index at the surface.)
Experimental: as §3
Test [10] concerns the target T2, mouse DLL4 extracellular domain. The test can be described thus: Biacore SPR.
Experimental: as §3
In test [11] the target is T1, human DLL4 extracellular domain. In words: competition ELISA, competitor huNotch-1.
Experimental: (§4) Plates were then washed 3 times with wash buffer (PBS, 0.05% Tween-20) and blocked with 200 μl/well blocking buffer (D-PBS, 1% BSA, 1 mM CaCl₂, 0.05% Tween-20) for 1 hour at 25° C. […] Assay plates were washed after blocking, and incubated with DLL4/antibody mixtures (100 μl/well, 1 hour at 25° C. with shaking). […] After a final wash, plates were developed using 100 μl/well substrate (TMB Sigma # T8665), and the reaction was stopped after an 8-minute incubation at 25° C. (for muDLL4 ELISA) and after 20 minute incubation at 25° C. (for huDLL4 ELISA) using 100 μl/well 1N HCl, and the absorbance was read at 450 nm.
Test [12] concerns the target T2, mouse DLL4 extracellular domain. The test can be described thus: competition ELISA, competitor huNotch-1.
Experimental: as §4
Test [13] has as its target T3, human DLL4 on the cell surface. In words: competition FACS, competitor huNotch-1.
Experimental: (§5) Notch blocking assay: Briefly, stable cell lines overexpressing cell-surface DLL4 were harvested from tissue culture flasks and re-suspended in phosphate buffered saline (PBS) containing 1% bovine serum albumin and 1 mM CaCl₂ (FACS buffer). HEK293-hDLL4 or HEK293-mDLL4 cells were dispensed into 96-well plate (v-bottom) at 1.5×10⁵ cells/well in FACS buffer. […] After washing the cells two times with FACS buffer, 50 μL of R-phycoerythrin-conjugated streptavidin (1:150 dilution in FACS buffer) (Jackson ImmunoResearch, West Grove, Pa., US, catalog no. 016-110-084) were added. Following an incubation on ice (4° C., 60 minutes), cells were washed three times and resuspended in FACS buffer. Fluorescence was measured using a Becton Dickinson FACSCalibur-HTS (Becton Dickinson, San Jose. Calif.).
Test [14] addresses T4, mouse DLL4 on the cell surface. In words: competition FACS, competitor huNotch-1.
Experimental: as §5
Test [15] addresses T1, human DLL4 extracellular domain. In words: Biacore SPR. The source holds these as a separate data set.
Experimental: (§6) The BIACORE® surface plasmon resonance assay (Biacore, Inc., Piscataway, N.J., US) determines the affinity of antibodies with kinetic measurements of on-rate and off-rate constants. Binding of DLL4 antibodies to a purified recombinant DLL4 extracellular domain is determined by surface plasmon resonance-based measurements with a Biacore® instrument (either a Biacore 2000, Biacore 3000, or Biacore T100, GE Healthcare, Piscataway, N.J. US) using running buffer HBS-EPB (10 mM HEPES [pH 7.4], 150 mM NaCl, 3 mM EDTA, 0.1 mg/ml BSA and 0.005% surfactant P20) at 25° C. For example, approximately 9000 RU of goat anti-human Fc specific polyclonal antibody (Thermo Fisher Scientific Inc., Rockford, Ill., US) diluted in 10 mM sodium acetate (pH 4.5) is directly immobilized across a CM5 research grade biosensor chip using a standard amine coupling kit according to manufacturer's instructions and procedures at 25 μg/ml. Unreacted moieties on the biosensor surface are blocked with ethanolamine. For kinetic analysis, rate equations derived from the 1:1 Langmuir binding model are fitted simultaneously to multiple antigen injections (using global fit analysis) with the use of Scrubber 2 (BioLogic Software). […] The equilibrium dissociation constant KD (M) of the reaction between antibodies and the target antigen is then calculated from the kinetic rate constants by the following formula: KD=Koff/Kₒₙ. Binding is recorded as a function of time and kinetic rate constants are calculated. In this assay, on-rates as fast as 10⁶ M⁻¹s⁻¹ and off-rates as slow as 10⁻⁶ s⁻¹ can be measured.
The target in test [16] is T2, mouse DLL4 extracellular domain. The test can be described thus: Biacore SPR. The source holds these as a separate data set.
Experimental: as §6
Test [17] addresses T6, mouse DLL4-his (mouse, UniProt Q9JI71 27-532).
T6 construct: extracellular domain; not shown: his tag
The test can be described thus: ELISA on DLL4-his.

The target in test [18] is T7, human DLL4-his (human, UniProt Q9NR61 27-529).
T7 construct: extracellular domain
In words: ELISA on DLL4-his.
Experimental: (§7) After the final wash, plates were incubated with 100 μl/well ELISA substrate (Sigma # T8665). The reaction was stopped after 8 minutes at 25° C. with 100 μl/well 1N HCl and the absorbance was read at 450 nm. Data were analyzed using Graphpad Prism software and EC50 values were reported.

The target of test [19] is T1, human DLL4 extracellular domain. In words: Biacore SPR. The source holds these as a separate data set.
Experimental: as §6
Test [20] concerns the target T2, mouse DLL4 extracellular domain. In words: Biacore SPR. This is another data set of the same source.
Experimental: as §6
Test [21] has as its target T3, human DLL4 on the cell surface. In words: FACS on DLL4 cells. This is another data set of the same source.
Experimental: as §2
The target in test [22] is T1, human DLL4 extracellular domain. The test can be described thus: competition ELISA, competitor huNotch-1. The source holds these as a separate data set.
Experimental: as §4
For test [23], the target named is T2, mouse DLL4 extracellular domain. In words: competition ELISA, competitor huNotch-1. The source holds these as a separate data set.
Experimental: as §4
In test [24] the target is T6, mouse DLL4-his. In words: ELISA on DLL4-his. The source holds these as a separate data set.
Experimental: as §7
Test [25] deals with T7, human DLL4-his. The test can be described thus: ELISA on DLL4-his. This is another data set of the same source.
Experimental: as §7
Test [26] concerns the target T3, human DLL4 on the cell surface. The test can be described thus: competition FACS, competitor huNotch-1. This is another data set of the same source.
Experimental: as §5
Test [27] concerns the target T4, mouse DLL4 on the cell surface. In words: competition FACS, competitor huNotch-1. The source holds these as a separate data set.
Experimental: as §5
Test [28] concerns the target T3, human DLL4 on the cell surface. In words: FACS on DLL4 cells. This is another data set of the same source.
Experimental: as §2
In test [29] the target is T4, mouse DLL4 on the cell surface. In words: FACS on DLL4 cells. The source holds these as a separate data set.
Experimental: as §2
For test [30] the target is unchanged. The test can be described thus: FACS on DLL4 cells (*historic data).
The target in test [31] is T3, human DLL4 on the cell surface. The test can be described thus: competition FACS, competitor huNotch-1. This is another data set of the same source.
Experimental: as §5
The target in test [32] is T4, mouse DLL4 on the cell surface. In words: competition FACS, competitor huNotch-1. This is another data set of the same source.
Experimental: as §5
Test [33] has as its target T1, human DLL4 extracellular domain. The test can be described thus: competition ELISA, competitor huNotch-1. This is another data set of the same source.
Experimental: as §4
Test [34] addresses T2, mouse DLL4 extracellular domain. In words: competition ELISA, competitor huNotch-1. The source holds these as a separate data set.
Experimental: as §4
Test [35] addresses T3, human DLL4 on the cell surface. The test can be described thus: competition FACS, competitor huNotch-1. The source holds these as a separate data set.
Experimental: as §5
Test [36] concerns the target T4, mouse DLL4 on the cell surface. In words: competition FACS, competitor huNotch-1; competition FACS, huNotch-1/DLL4 cells (IC50).
Experimental: as §5
The target in test [37] is T1, human DLL4 extracellular domain. In words: Biacore SPR. This is another data set of the same source.
In test [38] the target is T2, mouse DLL4 extracellular domain. In words: Biacore SPR. This is another data set of the same source.
Test [39] deals with T3, human DLL4 on the cell surface. In words: FACS on DLL4 cells. This is another data set of the same source.
Test [40] has as its target T1, human DLL4 extracellular domain. The test can be described thus: Biacore SPR (*historic data); historic data, not from the same run as the other cells.
The target of test [41] is T4, mouse DLL4 on the cell surface. The test can be described thus: FACS on DLL4 cells. The source holds these as a separate data set.
Experimental: as §2

T6 sequence (Q9JI71 27-532): as the sequence (Q9JI71 27-532) above

B1: E9 (antibody, IgG1, V domains shown)
VH: EVQLQESGPGLVKPSETLSLTCTVSGGSISSSSYYWGWIRQPPGKGLEWIGDIYYTGSTYYNPSLKSRVTISVDTSKNQFSLKLSSVTAADTAVYYCAREDVILRGGSDYWGQGTLVTVSS
VL: SYELTQPPSVSVSPGQTASITCSGQRLGDKYASWYQQKPGQSPVLVIYEDSKRPSGIPERFSGSNSGDTATLTISGTQPMDEADYYCQAWDRDTGVFGYGTRVTVL
notes: also called anti-DLL4 PROfusion antibody E9
As to B1, the “sVEGFR1 Inhibition (IC50, nM) DLL4 ECD/EaHy cells, hu” value in test [1] was found to be 1 nM. The “sVEGFR1 Inhibition (IC50, nM) DLL4 ECD/EaHy cells, mu” value in test [2] is 0.4 nM. The “Inhibition of Notch activation via huDLL4 cells, coculture (IC50, nM)” value in test [3] was found to be 6.2 nM. For the same molecule, the concentration giving a half-maximal response (EC50) (as a rule, the concentration that produces a half-maximal response) in test [4] came out at 0.17 nM; in test [5] it was 0.18 nM; in [6], 7.23 nM; in test [7], 0.32 nM. The values for the Kd in test [8], in test [9] and in test [10] were 15 nM, 3.36 nM and 16 nM, respectively. Besides, the koff (as a rule, the rate constant with which the complex falls apart) in test [8] came out at 0.00029 s⁻¹; in [9], 6.6e-05 s⁻¹; in [10], 0.00026 s⁻¹. In addition, the figures for the kon in test [8], in test [9] and in [10] were 19000 M⁻¹ s⁻¹, 20000 M⁻¹ s⁻¹ and 18000 M⁻¹ s⁻¹, respectively. Also, the IC50 (as a rule, the concentration at which inhibition is half-maximal) in [11] came out at 1.7 nM; in test [12] it was 2.1 nM; in test [13], 23.4 nM; in [14], 3.2 nM.

B2: E9.1 (antibody, human IgG1, V domains shown)
VH: B1 VH
VL: SYELTQPPSVSVSPGQTASITCSGQRLGDKYASWYQQKPGQSPVLVIYEDSKRPSGIPERFSGSNSGDTATLTISGTQPMDEADYYCQAWDRDTGVFGYGTRVTVLG
In the case of B2, the dissociation constant Kd (in general, the equilibrium constant for the complex coming apart) in test [15] was 2.38 nM; in test [16], 12.8 nM; in test [19], 0.52 nM; in [20], 1.1 nM; in test [21] it was 0.35 nM; in test [28], 3.62 nM. Besides, the results for the equilibrium dissociation constant (Kd) in [29] and in test [30] were 1.66 nM and 1.6 nM, respectively. In addition, the concentration giving a half-maximal response (EC50) came out at 0.04 nM in test [17], 0.03 nM in test [18], 0.34 nM in test [24] and 0.29 nM in test [25]. In addition, the IC50 worked out at 2.2 nM in test [22]; 5.85 nM in test [23]; 4.55 nM in [26]; 1.02 nM in test [27]; 1.62 nM in [31]; 1.06 nM in test [32]. Moreover, the IC50 in test [33] and in test [34] was 2.5 nM each time.

B3: E9.16 (antibody, V domains shown)
VH: B1 VH
VL: B1 VL with Q25E, A32V, S51F, R102K
notes: also called DLL4-E9-16 hIgG1/L
The molecule B3 registered an IC50 in test [35] of 12.6 nM. In test [36], this molecule displayed a half-inhibitory concentration (IC50) of 1.1 nM. Moreover, in [37], the Kd came out at 2.45 nM, the off-rate constant (koff) was found to be 3.15e-05 s⁻¹ and the kon (usually the second-order rate constant of association) is 12900 M⁻¹ s⁻¹. In [38], this molecule had a Kd of 8.1 nM, a dissociation rate constant (koff) of 0.000148 s⁻¹ and a kon of 18300 M⁻¹ s⁻¹. This molecule showed a 50% effective concentration (EC50) in [39] of 1.7 nM.

B4: E9-SE1 (antibody, V domains shown)
VH: EVQLVESGGGLVQPGGSLRLSCAVSGGSISSSSYYWGWIRQAPGKGLEWIGDIYYTGSTYYNPSLKSRVTISVDTSKNSFYLQMNSLRAEDTAVYYCAREDVILRGGSDYWGQGTLVTVSS
VL: B2 VL with S1L, E3V, P79T, Y86L, Y99G, R102K
notes: full-length human IgG1
B4: the dissociation constant Kd in test [16] was 12.8 nM; in test [40] it was 15.2 nM; in test [21], 3.45 nM; in test [41] it was 1.34 nM. Further, the EC50 in [24] stood at 0.19 nM; in test [25], 0.16 nM. Further, the IC50 in [26] worked out at 8.51 nM; in [27], 1.71 nM; in test [33], 2.7 nM; in test [34], 2.9 nM.
